{
  "source": "patent US20220332804A1",
  "about": "(CSL INNOVATION, published 2022)",
  "test_in_all_cases": "SPR, antibody captured, C2 as analyte;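 further: biacore SPR at 37 °C, anti-C2 mAbs captured via goat anti-human IgG on CM5 chips, double-referenced sensorgrams fit to a 1:1 kinetic or steady-state model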",
  "key": {"[1]": {"target": "T1, human C2 N380A (human, UniProt P06681 21-752)", "T1 sequence": "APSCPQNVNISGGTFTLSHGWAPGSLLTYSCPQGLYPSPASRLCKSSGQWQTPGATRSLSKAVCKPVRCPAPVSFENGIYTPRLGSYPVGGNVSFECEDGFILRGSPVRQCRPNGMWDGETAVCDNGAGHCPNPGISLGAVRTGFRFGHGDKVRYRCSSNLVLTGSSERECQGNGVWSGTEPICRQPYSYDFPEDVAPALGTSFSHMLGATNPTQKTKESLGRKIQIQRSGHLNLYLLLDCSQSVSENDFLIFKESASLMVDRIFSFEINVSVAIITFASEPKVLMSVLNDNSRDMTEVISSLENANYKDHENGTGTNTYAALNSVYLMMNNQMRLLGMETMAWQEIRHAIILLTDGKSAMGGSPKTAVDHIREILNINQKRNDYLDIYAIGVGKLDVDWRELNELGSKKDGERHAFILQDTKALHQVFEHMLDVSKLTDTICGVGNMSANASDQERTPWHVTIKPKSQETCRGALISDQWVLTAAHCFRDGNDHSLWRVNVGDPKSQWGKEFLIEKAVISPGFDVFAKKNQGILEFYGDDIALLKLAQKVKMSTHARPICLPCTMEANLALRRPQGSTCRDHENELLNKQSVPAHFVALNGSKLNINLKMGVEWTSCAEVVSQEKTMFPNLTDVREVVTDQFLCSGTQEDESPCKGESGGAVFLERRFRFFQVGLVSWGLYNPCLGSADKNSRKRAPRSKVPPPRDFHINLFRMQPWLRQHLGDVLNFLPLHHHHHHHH"}, "[2]": {"target": "T2, human C2 A472S (human, UniProt P06681 21-752)", "T2 sequence": "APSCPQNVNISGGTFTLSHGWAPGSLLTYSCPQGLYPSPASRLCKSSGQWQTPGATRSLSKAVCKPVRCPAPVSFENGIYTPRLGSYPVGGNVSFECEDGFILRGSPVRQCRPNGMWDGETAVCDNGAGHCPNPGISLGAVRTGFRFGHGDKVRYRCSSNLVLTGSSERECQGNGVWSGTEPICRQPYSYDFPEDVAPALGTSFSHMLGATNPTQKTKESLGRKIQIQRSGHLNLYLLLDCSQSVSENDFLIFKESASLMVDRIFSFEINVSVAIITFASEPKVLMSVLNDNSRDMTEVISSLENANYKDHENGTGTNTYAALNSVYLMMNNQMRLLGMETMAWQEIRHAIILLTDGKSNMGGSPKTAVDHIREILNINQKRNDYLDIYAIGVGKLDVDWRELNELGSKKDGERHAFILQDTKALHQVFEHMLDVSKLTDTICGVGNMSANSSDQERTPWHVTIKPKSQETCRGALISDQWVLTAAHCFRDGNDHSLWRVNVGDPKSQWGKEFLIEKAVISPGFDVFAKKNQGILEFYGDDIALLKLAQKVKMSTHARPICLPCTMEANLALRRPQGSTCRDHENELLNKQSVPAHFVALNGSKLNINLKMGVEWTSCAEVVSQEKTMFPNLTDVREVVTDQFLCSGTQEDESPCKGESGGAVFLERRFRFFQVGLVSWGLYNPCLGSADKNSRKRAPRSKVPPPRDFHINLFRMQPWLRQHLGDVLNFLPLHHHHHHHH"}, "[3]": {"target": "T3, human C2 S708A (human, UniProt P06681 21-752)", "T3 sequence": "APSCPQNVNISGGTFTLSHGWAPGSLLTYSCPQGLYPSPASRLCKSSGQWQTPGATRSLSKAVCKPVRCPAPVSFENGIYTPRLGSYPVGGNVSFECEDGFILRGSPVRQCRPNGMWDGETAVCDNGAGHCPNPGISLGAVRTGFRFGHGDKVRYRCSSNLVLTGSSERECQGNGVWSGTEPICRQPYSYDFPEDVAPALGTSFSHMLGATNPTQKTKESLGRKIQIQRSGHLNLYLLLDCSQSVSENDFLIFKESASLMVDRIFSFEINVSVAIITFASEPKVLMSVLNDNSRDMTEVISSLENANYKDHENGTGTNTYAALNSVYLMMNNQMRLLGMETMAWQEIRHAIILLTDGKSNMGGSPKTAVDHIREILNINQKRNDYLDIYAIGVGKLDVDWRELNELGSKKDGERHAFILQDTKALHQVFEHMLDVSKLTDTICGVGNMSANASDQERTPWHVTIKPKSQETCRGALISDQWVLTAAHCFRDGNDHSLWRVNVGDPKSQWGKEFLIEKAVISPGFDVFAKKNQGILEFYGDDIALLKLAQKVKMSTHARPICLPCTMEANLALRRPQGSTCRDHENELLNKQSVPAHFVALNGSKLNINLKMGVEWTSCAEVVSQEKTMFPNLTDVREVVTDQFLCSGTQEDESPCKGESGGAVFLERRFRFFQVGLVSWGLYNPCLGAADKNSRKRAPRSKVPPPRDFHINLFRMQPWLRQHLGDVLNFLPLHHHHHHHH"}, "[4]": {"target": "T4, human C2 G677A (human, UniProt P06681 21-752)", "T4 sequence": "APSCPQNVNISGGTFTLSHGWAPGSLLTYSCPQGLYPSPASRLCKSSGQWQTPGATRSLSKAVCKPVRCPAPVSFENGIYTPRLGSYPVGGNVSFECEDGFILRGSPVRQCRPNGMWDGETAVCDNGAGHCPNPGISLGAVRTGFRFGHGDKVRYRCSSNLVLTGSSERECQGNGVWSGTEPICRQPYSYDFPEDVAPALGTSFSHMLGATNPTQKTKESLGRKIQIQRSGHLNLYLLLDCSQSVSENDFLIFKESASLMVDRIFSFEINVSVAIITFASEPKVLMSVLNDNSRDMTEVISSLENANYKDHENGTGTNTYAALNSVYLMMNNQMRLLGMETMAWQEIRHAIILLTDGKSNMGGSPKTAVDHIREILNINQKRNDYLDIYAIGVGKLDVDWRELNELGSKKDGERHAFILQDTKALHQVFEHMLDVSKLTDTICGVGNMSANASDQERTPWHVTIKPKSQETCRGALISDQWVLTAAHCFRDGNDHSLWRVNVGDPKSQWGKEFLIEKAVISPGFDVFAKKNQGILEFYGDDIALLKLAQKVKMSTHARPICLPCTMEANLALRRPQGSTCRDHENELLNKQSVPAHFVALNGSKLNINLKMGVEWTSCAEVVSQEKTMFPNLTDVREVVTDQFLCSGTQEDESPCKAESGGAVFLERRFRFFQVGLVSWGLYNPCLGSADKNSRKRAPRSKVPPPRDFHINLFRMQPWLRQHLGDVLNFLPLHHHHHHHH"}},
  "data": [
    {"binder": "RF16-226 (antibody, human IgG4 S228P, lambda, pH-dependent anti-C2 antibody from a phage display library; also called WT) heavy: not shown light: SYELTQPPSVSVSPGQTARITCSGDALTSKYVAWYQQKSGLAPLLVIYEDTRRPSGIPAKFSGSSSGSVATLTISGAHGDDEADYYCYSTDASGHQRVFGGGTKLTVLSQPKAAPSVTLFPPSSEELQANKATLVCLISDFYPGAVTVAWKADGSPVKAGVETTKPSKQSNNKYAASSYLSLTPEQWKSHRSYSCQVTHEGSTVEKTVAPTECS", "values": [
      {"measurement": "Kd", "setting": "[1]", "result": 15.1, "unit": "nM"},
      {"measurement": "Kd", "setting": "[2]", "result": 53, "unit": "nM"},
      {"measurement": "Kd", "setting": "[3]", "result": 21.1, "unit": "nM"},
      {"measurement": "Kd", "setting": "[4]", "result": 8.7, "unit": "nM"}
    ]}
  ]
}
